From publication PMC6826516 (2019)

B1: SmBiT-TAZ-Flag (TAZ aa 13-119), wild type [not stated] / LgBiT-TEAD1-Myc (TEAD1 aa 194-411), wild type [not stated] (parent complex)
chain 1: PGQQVIHVTQDLDTDLEALFNSVMNPKPSSWRKKILPESFFKEPDSGSHSRQSSTDSSGGHPGPRLAGGAQHVRSHSSPASLQLGTGAGAAGSPAQQHAHLRQQSYD
chain 2: RSIGTTKLRLVEFSAFLEQQRDPDSYNKHLFVHIGHANHSYSDPLLESVDIRQIYDKFPEKKGGLKELFGKGPQNAFFLVKFWADLNCNIQDDAGAFYGVTSQYESSENMTVTCSTKVCSFGKQVVEKVETEYARFENGRFVYRINRSPMCEYMINFIHKLKHLPEKYMMNSVLENFTILLVVTNRDTQETLLCMACVFEVSNSEHGAQHHIYRLVKD

Variants of: B1
Assay: NanoBiT assay (split-luciferase biosensor) in lysates of transfected HEK293T cells; 48 h after transfection; equal amounts of each biosensor plasmid; read off a plot

| Variant | response |
| --- | --- |
| chain 1 W31A, chain 1 K34A, chain 1 L36A, chain 1 S39A, chain 1 F40A, chain 1 F41A | ~430 fold over LgBiT-TEAD1 alone |
